Test [1] addresses T1, CNNM2-H523K/S269P (mouse) (UniProt Q3TWN3).
T1 sequence: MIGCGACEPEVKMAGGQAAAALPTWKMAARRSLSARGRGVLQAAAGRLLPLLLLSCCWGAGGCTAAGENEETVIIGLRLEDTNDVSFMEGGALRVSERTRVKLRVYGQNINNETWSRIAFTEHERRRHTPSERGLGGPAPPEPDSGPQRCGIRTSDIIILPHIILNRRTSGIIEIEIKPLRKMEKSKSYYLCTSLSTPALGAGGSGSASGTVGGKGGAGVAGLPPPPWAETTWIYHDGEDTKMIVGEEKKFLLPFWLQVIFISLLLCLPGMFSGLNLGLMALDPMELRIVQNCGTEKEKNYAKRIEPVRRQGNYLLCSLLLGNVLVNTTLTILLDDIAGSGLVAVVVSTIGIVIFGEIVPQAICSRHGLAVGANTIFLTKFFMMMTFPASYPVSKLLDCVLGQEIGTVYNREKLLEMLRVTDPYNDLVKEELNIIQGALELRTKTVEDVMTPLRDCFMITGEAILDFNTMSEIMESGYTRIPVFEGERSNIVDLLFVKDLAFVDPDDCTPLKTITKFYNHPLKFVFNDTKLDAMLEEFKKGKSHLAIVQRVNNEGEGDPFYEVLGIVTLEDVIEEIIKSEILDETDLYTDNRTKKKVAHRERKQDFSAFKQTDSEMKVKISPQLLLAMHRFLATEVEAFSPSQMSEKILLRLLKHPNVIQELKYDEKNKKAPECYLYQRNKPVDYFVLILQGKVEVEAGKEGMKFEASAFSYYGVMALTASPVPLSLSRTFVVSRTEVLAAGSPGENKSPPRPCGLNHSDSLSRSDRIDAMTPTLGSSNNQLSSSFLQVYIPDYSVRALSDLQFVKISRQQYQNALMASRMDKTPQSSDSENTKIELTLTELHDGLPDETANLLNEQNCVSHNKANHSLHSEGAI

For a further test, the target named is T2, CNNM2-S269P (mouse) (UniProt Q3TWN3).
T2 sequence: T1 sequence with K523H

Test [2] deals with T3, FLAG-tagged CNNM2 lacking the CBS-pair domain, CNNM2-ΔCBS(469–578) (mouse) (UniProt Q3TWN3).
T3 sequence: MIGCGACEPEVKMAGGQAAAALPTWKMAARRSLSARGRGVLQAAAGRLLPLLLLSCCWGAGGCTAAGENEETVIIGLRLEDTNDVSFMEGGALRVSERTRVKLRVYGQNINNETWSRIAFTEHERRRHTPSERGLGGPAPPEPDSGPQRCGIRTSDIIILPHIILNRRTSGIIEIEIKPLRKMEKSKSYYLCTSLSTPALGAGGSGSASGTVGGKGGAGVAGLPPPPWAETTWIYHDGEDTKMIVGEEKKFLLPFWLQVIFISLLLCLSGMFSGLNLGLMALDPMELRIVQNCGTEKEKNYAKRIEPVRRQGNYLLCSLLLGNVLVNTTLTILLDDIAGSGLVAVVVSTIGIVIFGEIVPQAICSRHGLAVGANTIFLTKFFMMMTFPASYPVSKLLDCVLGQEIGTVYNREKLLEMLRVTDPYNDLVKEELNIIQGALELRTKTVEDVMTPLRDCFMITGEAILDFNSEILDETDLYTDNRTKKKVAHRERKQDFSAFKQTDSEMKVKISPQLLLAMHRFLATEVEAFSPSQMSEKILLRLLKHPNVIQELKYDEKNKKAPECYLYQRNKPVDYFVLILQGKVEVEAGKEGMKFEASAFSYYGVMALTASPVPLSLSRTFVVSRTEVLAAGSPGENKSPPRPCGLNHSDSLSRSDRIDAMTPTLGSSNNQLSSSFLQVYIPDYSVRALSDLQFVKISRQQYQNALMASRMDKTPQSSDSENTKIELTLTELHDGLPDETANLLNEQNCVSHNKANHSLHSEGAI

Changes are numbered by the printed parent chain.

The text below walks through data of publication PMC12547303.

B1: Myc-DDK tagged ARL15 (natural protein)
chain: MSDLRITEAFLYMDYLCFRALCCKGPPPARPEYDLVCIGLTGSGKTSLLSKLCSESPDNVVSTTGFSIKAVPFQNAILNVKELGGADNIRKYWSRYYQGSQGVIFVLDSASSEDDLEAARNELHSALQHPQLCTLPFLILANHQDKPAARSVQEIKKYFELEPLARGKRWILQPCSLDDMDALKDSFSQLINLLEEKDHEAVRM
B1 had an outward TRPM7 current density at +100 mV in 293-M7-ΔCNNM3/4 cells with CNNM2-H523K/S269P, without vs with ARL15 (the value is with ARL15); not different in test [1] of 294. This molecule displayed an outward TRPM7 current density at +100 mV in 293-M7-ΔCNNM3/4 cells with CNNM2-S269P, without vs with ARL15 (the value is with ARL15); marked reduction with CNNM2-S269P (mouse) of 123. This molecule returned an outward TRPM7 current density at +100 mV in 293-M7-ΔCNNM3/4 cells with CNNM2-ΔCBS, without vs with ARL15 (the value is with ARL15); not different in test [2] of 330.
